The record followed here is patent US20130230562.

This series concerns the target ApoHsp (cage protein formed by the fusion protein of Hsp, DEVD motif and histidine polymer, labelled with Cy5.5 and BHQ3).

B1: caspase-9 (NCBI accession no: NP-001220.2), human, purchased from R&D Systems (protein)
chain: MDEADRRLLRRCRLRLVEELQVDQLWDALLSRELFRPHMIEDIQRAGSGSRRDQARQLIIDLETRGSQALPLFISCLEDTGQDMLASFLRTNRQAAKLSKPTLENLTPVVLRPEIRKPEVLRPETPRPVDIGSGGFGDVGALESLRGNADLAYILSMEPCGHCLIINNVNFCRESGLRTRTGSNIDCEKLRRRFSSLHFMVEVKGDLTAKKMVLALLELAQQDHGALDCCVVVILSHGCQASHLQFPGAVYGTDGCPVSVEKIVNIFNGTSCPSLGGKPKLFFIQACGGEQKDHGFEVASTSPEDESPGSNPEPDATPFQEGLRTFDQLDAISSLPTPSDIFVSYSTFPGFVSWRDPKSGSWYVETLDDIFEQWAHSEDLQSLLLRVANAVSVKGIYKQMPGCFNFLRKKLFFKTS
As for B1, the “fluorescence signal (Cy5.5 dequenching after cleavage, 96-well plate, 37 C, 2 hours)” value is “fluorescence did not occur in reactions with another two capases at all”.

B2: caspase-8 (NCBI accession no: NP-001073593.1), human, purchased from R&D Systems (protein)
chain: SESQTLDKVYQMKSKPRGYCLIINNHNFAKAREKVPKLHSIRDRNGTHLDAGALTTTFEELHFEIKPHDDCTVEQIYEILKIYQLMDHSNMDCFICCILSHGDKGIIYGTDGQEAPIYELTSQFTGLKCPSLAGKPKVFFIQACQGDNYQKGIPVETDSEEQPYLEMDLSSPQTRYIPDEADFLLGMATVNNCVSYRNPAEGTWYIQSLCQSLRERCPRGDDILTILTEVNYEVSNKDDKKNMGKQMPQPTFTLRKKLVFPSD
Turning to B2, the “fluorescence signal (Cy5.5 dequenching after cleavage, 96-well plate, 37 C, 2 hours)” value was “fluorescence did not occur in reactions with another two capases at all”.
